Data on 1 substance can be found in patent US20200282021A1.

In the test the target is GLP-1 receptor expressed on the transgenic cell line GLP1R_cAMP/luc. Briefly: cell-based or functional assay.

In turn, Dulaglutide (TRULICITY) (Fc fusion) registered an EC50, cAMP-dependent luciferase reporter in GLP-1R over-expressing cells of 6.66 pM.
